Measured values as given in paper PMC13543948, “SNX-BAR proteins 5 and 6 are required for NCOA7-AS antiviral activity against influenza A virus” (The Journal of Biological Chemistry, 2026).
Positions count from the first letter of the chain named. Where no end group is shown, it is not given here.

B1: MBP-tagged PX domain of SNX5 (MBP-PX-SNX5) (domain or fragment, human, UniProt Q9Y5X3 25-172, looked up)
chain: LNVDPSLQIDIPDALSERDKVKFTVHTKTTLPTFQSPEFSVTRQHEDFVWLHDTLIETTDYAGLIIPPAPTKPDFDGPREKMQKLGEGEGSMTKEEFAKMKQELEAEYLAVFKKTVSSHEVFLQRLSSHPVLSKDRNFHVFLEYDQDL
notes: Phox homology (PX) domain of human sorting nexin 5; Cloned in pMAL-p4X; also called PX-SNX5-WT; source: E. coli BL21 (DE3), purified (amylose resin, SEC)
B2: GST-tagged NCOA7-AS N-terminal domain (NCOA7-AS-NTD-GST) (domain or fragment, human, UniProt Q8NI08-5 1-53, looked up)
chain: MRGQRLPLDIQIFYCARPDEEPFVKIITVEEAKRRKSTCSYYEDEDEEVLPVL
notes: numbers count on: NCOA7-AS; source: E. coli BL21 (DE3), purified (Ni-NTA, SEC); not shown: GST, C-terminal, kept
B3: FITC conjugated NCOA7-AS peptide (NCOA7-AS-NTD-FITC) (peptide)
peptide: RLPLDIQIFYCARPDEEPFVKIITVEEAKRR
modifications: also: FITC conjugated, position not given here
notes: numbers count on: NCOA7-AS; Printed as NH2-...-COOH; Limits worked out from Tyr14, Gln11, Glu21 and Val24 as numbered in the structure; also called fluorescently labeled NCOA7-AS-NTD

Columns and labels:
Conditions in all cases: both partners purified
GST-tagged NCOA7-AS-Y14F = target: T1, GST-tagged NCOA7-AS-Y14F (human, UniProt Q8NI08-5 1-219, Y14F); experiment: pull-down; GST-tagged proteins (14-35 μg) on glutathione agarose beads, 85 μg MBP-tagged protein, 2 h at 4 °C; 50 mM Tris-HCl pH 8, 600 mM NaCl, 5 mM β-mercaptoethanol, 10% glycerol; Western blot (GST, MBP)
T1 construct: source: E. coli BL21 (DE3), purified (Ni-NTA, SEC); not shown: GST, C-terminal, kept
T1 sequence (looked up): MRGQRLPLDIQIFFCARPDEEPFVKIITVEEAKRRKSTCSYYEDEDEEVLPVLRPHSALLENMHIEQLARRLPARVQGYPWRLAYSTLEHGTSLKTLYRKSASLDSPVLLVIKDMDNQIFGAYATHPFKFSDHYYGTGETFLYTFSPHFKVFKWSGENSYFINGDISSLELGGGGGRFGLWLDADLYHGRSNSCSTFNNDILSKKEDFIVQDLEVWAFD

[1] = target: T2, GST-tagged NCOA7-AS (NCOA7-AS-WT-GST) (human, UniProt Q8NI08-5 1-219); experiment: as above
T2 construct: numbers count on: NCOA7-AS; Modified pET-30: MCS, TEV cleavage site, GST, His6; no cleavage is described for the GST-tagged proteins; also called GST-tagged-NCOA7-AS-WT; source: E. coli BL21 (DE3), purified (Ni-NTA, SEC); not shown: GST, C-terminal, kept
T2 sequence (looked up): T1 sequence (looked up) with F14Y

[2] = target: B1; experiment: as above
[3] = target: B1; experiment: microfluidic diffusional sizing; 57 nM FITC peptide tracked, MBP-PX-SNX5 proteins titrated 0.38-250 μM in PBS-10% glycerol; Fluidity One-W; hydrodynamic radius; one-site specific binding fit; apparent Kd
[4] = target: T3, MBP-tagged PX domain of SNX5 with F136A (MBP-PX-SNX5-F136A) (human, UniProt Q9Y5X3 25-172, F136A); experiment: as above
T3 construct: Phox homology (PX) domain of human sorting nexin 5; pMAL-PX-SNX5-F136A by site-directed mutagenesis; also called F136A mutant; source: E. coli BL21 (DE3), purified (amylose resin, SEC)
T3 sequence (looked up): B1 chain with F112A

B1: binds (GST-tagged NCOA7-AS-Y14F); binds [1].

B2: binds [2].

B3 was tested, and the Kd [3] was 1400 nM and the Kd [4] was 13.4 µM.
